Results reported in US10829756B2, “Discovery of enzymes from the alpha-keto acid decarboxylase family” (Regents of the University of California, priority 2015, dated 2020).
“And” between values parts separate entries of the source, which are not always exact repeats. Identical values can stand only once.

Assays:
[1] = tested on: synthetic recursive+1 pathway; assay: In vivo alcohol production of the synthetic recursive+1 pathway (fermentation, GC-FID); assay type: cell-based, E. coli; details: for 1-Butanol production / 1-Ethanol production / 1-Heptanol production / 1-Hexanol production / 1-Octanol production / 1-Pentanol production / 1-Propanol production: forty hours, microaerobic, defined media
Experimental: The measured specificity and activity for each enzyme was used to select two candidates for further characterization of their ability to modulate alcohol production in vivo. The two enzymes with the highest activity and specificity (FIG. 4), KIVD_VLV and GEO 175, were tested for their ability to reprogram the synthetic recursive+1 pathway to produce long-chain alcohol products in vivo. The alcohol-producing biochemical pathway was adapted from a previous study used to synthesize alcohols of various lengths.^3,4 Starting from glucose, the aforementioned+1 pathway, involving LeuABCD, recursively elongates 2-ketoacids, starting with 2-ketobutyrate, into longer chained 2-ketoacids. These 2-ketoacids are then converted to aldehydes by ketoacid decarboxylases (native KIVD, KIVD_VLV, and GEO 175) and subsequently to alcohols by an alcohol dehydrogenase. Carbon flux through this alcohol synthesizing biochemical pathway is enhanced by overexpressing thrABC, ilvA, LeuABCD, and ADH6 on inducible plasmids transformed into E. coli.^3 The effects of overexpression were furthermore supported and maintained by knocking out the threonine exporter enzyme RhtA and the primary DNA recombination degradation enzyme RecA. The enzyme AdhE was also knocked out, which helps raise long chain alcohol production by eliminating a competing pathway where acetyl-CoA is directly converted to ethanol.^19
Genes were removed from the ATCC 98082 ΔrhtA strain genome using P1 transduction from the Keio collection as previously.^32 The aldehyde-alcohol dehydrogenase gene (adhE) was knocked out to eliminate ethanol production from acetyl-coA. In all strains, recA was knocked out to prevent recombination between the genome and plasmids, thereby stabilizing the transformants. Primers used to target recA for knockout were designed based on the Keio collection (Genobase, ecoli.aist-nara.ac.jp) and ordered from Integrated DNA Technologies.
For n-alcohol production, strains of ST128 were transformed with pZS_thrO, pZAlac_ilvABSleuA, and pZE_LeuA*BCDK*A6 containing various kivd mutations. Fermentation conditions were adapted from those in previous works,^3,4 with the following changes: 20 mL of medium was used, with 100 μg/mL ampicillin, […] kanamycin, and 100 μg/mL spectinomycin added. Cells were grown to an optical density at 600 nm of ˜0.6, followed by induction with 0.1 mM isopropyl-b-D-thiogalactoside (IPTG). After fermentation, cells were centrifuged for 15 minutes at 4000×g and 4° C. The supernatant was split into two fractions for analysis, 5 mL for short chain alcohols (ethanol, 1-propanol, and 1-butanol), and 15 mL for long chain alcohols (1-pentanol, 1-hexanol, 1-heptanol, and 1-octanol). Long chain alcohols were extracted from the 15 mL fraction by 3 mL n-hexane prior to analysis. GC-FID analysis was performed as previously described.^4

[2] = In vitro steady-state kinetics of purified 2-ketoacid decarboxylases (ADH/NADH-coupled), C8 substrate; assay type: biochemical; details: kcat/KM on C8
Experimental: For the native KIVD and KIVD_VLV mutant, 2 ml overnight cultures of XL1B cells were transformed with pQE9 containing N-terminal his-tagged KIVD enzymes and grown in Terrific Broth (BP biomedical, Cat#3046-042) with 50 μg/mL of carbenicillin. (Fisher scientific, Cat# BP2648-5) For the GEOs, 2 ml overnight cultures of BLR cells were transformed with pet29b+ plasmid containing N-terminal his-tagged GEOs, and grown in Terrific Broth with 50 μg/mL of kanamycin. (Fisher scientific, Cat# BP906-5) These cultures were diluted 1:1000 in 500 mL of Terrific Broth with 1 mM MgSO4, 1% glucose, and 50ug/mL of corresponding antibiotics, then grown at 37° C. for 24 hours. […] Protein concentrations were determined using a Synergy H1 spectrophotometer (Biotek) by measuring absorbance at 280 nm using their calculated extinction coefficients with ExPASy ProtParam Tool.^33 All other buffers and salts were purchased from Fisher Scientific unless otherwise specified.
The kcat and KM values of selective KIVD mutants were measured for the substrates: C3, C5, isoC5, and C8. […] Activity was measured at 0.005 mM to 10 mM substrates. […] Absorbance readings were taken every 1-minute at OD340 at 21° C. for 60 minutes using the Synergy H1. Kinetic parameters (kcat and KM) were determined by fitting initial velocity versus substrate concentration data to the Michaelis-Menten equation.

| Molecule | 1-Butanol production [1] [mg/L] | 1-Ethanol production [1] | 1-Heptanol production [1] [mg/L] | 1-Hexanol production [1] [mg/L] | 1-Octanol production [1] | 1-Pentanol production [1] [mg/L] | 1-Propanol production [1] | other results |
| --- | --- | --- | --- | --- | --- | --- | --- | --- |
| Native KIVD: ketoisovalerate decarboxylase used in the current synthetic recursive+1 pathway, SEQ ID NO:1 (protein, listed as Lactococcus lactis) MYTVGDYLLDRLHELGIEEIFGVPGDYNLQFLDQIISRKDMKWVGNANELNASYMADGYARTKKAAAFLTTFGVGELSAVNGLAGSYAENLPVVEIVGSPTSKVQNEGKFVHHTLADGDFKHFMKMHEPVTAARTLLTAENATVEIDRVLSALLKERKPVYINLPVDVAAAKAEKPSLPLKKENSTSNTSDQEILNKIQESLKNAKKPIVITGHEIISFGLEKTVSQFISKTKLPITTLNFGKSSVDEALPSFLGIYNGKLSEPNLKEFVESADFILMLGVKLTDSSTGAFTHHLNENKMISLNIDEGKIFNESIQNFDFESLISSLLDLSEIEYKGKYIDKKQEDFVPSNALLSQDRLWQAVENLTQSNETIVAEQGTSFFGASSIFLKPKSHFIGQPLWGSIGYTFPAALGSQIADKESRHLLFIGDGSLQLTVQELGLAIREKINPICFIINNDGYTVEREIHGPNQSYNDIPMWNYSKLPESFGATEERVVSKIVRTENEFVSVMKEAQADPNRMYWIELILAKEDAPKVLKKMGKLFAEQNKS | 1964 ± 24 | 652 ± 32 mg/L | 20 ± 3 | 75 ± 6 | not observed | 594 ± 20 | 693 ± 4 mg/L | overall alcohol production [1]: 4.0 g/L; short alcohols (C2-C4) share of total alcohol production [1]: 82% |
| GEO175: native enzyme from Streptomyces sp. C, predicted protein with no known function, 2-ketoacid decarboxylase, SEQ ID NO:2 (protein, Streptomyces sp. C) MRTVRESALDVLRARGMTTVFGNPGSTELPMLKQFPDDFRYVLGLQEAVVVGMADGFALASGTTGLVNLHTGPGTGNAMGAILNARANRTPMVVTAGQQVRAMLTMEALLTNPQSTLLPQPAVKWAYEPPRAADVAPALARAVQVAETPPQGPVFVSLPMDDFDVVLGEDEDRAAQRAAARTVTHAAAPSAEVVRRLAARLSGARSAVLVAGNDVDASGAWDAVVELAERTGLPVWSAPTEGRVAFPKSHPQYRGMLPPAIAPLSRCLEGHDLVLVIGAPVFCYYPYVPGAHLPENTELVHLTRDADEAARAPVGDAVVADLALTVRALLAELPAREAAAPAARTARAESTAEVDGVLTPLAAMTAIAQGAPANTLWVNESPSNLGQFHDATRIDTPGSFLFTAGGGLGFGLAAAVGAQLGAPDRPVVCVIGDGSTHYAVQALWTAAAYKVPVTFVVLSNQRYAILQWFAQVEGAQGAPGLDIPGLDIAAVATGYGVRAHRATGFGELSKLVRESALQQDGPVLIDVPVTTELPTL | 19 | no ethanol or propanol production is observed | 274 | 160 | 10 mg/L | 88 | no ethanol or propanol production is observed | catalytic efficiency on C8 lower than native KIVD [2]: 2 fold; drop of overall alcohol production from that obtained with KIVD [1]: ~10 fold; heptanol share of alcohol production [1]: 50%; hexanol share of alcohol production [1]: 29%; major alcohol product [1]: heptanol (C7) and 1-heptanol; pentanol share of alcohol production [1]: 16%; 1-Butanol production ([1]; listed as GEO 175): 19 ± 2 mg/L; 1-Heptanol production ([1]; listed as GEO 175): 274 ± 19 mg/L; 1-Hexanol production ([1]; listed as GEO 175): 160 ± 18 mg/L; 1-Octanol production ([1]; listed as GEO 175): 10 ± 1 mg/L; 1-Pentanol production ([1]; listed as GEO 175): 88 ± 12 mg/L; long chain (≥C5) alcohols produced ([1]; sum of long chain alcohols): 522 mg/L |
